# Assay results from the supplement of paper PMC12855868.
# B1: library; numbered along this chain (parent)
# chain: MAAAGGARLLRAASAVLGGPAGRWLHHAGSRAGSSGLLRNRGPGGSAEASRSLSVSARARSSSEDKITVHFINRDGETLTTKGKVGDSLLDVVVENNLDIDGFGACEGTLACSTCHLIFEDHIYEKLDAITDEENDMLDLAYGLTDRSRLGCQICLTKSMDNMTVRVPETVADARQSIDVGKTS
# Variants of: B1
# Test: scaled log2 fold change in cell abundance, elesclomol vs control (0 = silent mean, 1 = nonsense mean) (scaled log2 ratio); higher = higher viability under elesclomol (loss of FDX1 cuproptosis function)
# Conditions: glucose 10 mM
# [1] = with ABC1 FDX1 KO, elesclomol 5 nM, 14 days
# [2] = with HEK293T FDX1 KO, elesclomol 40 nM, 11 days
# 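Further: variant abundance is its share of total variant reads in each endpoint sample, from next-generation sequencing of the integrated ORF PCR-amplified out of genomic DNA.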
variant,measurement,setting,value
D139N,scaled log2 fold change,[1],-0.132
D139H,scaled log2 fold change,[1],-0.062
same,scaled log2 fold change,[2],-0.315
D139E,scaled log2 fold change,[1],0.147
same,scaled log2 fold change,[2],0.513
D139W,scaled log2 fold change,[1],0.0888
same,scaled log2 fold change,[2],-0.429
D139Q,scaled log2 fold change,[1],-0.0276
same,scaled log2 fold change,[2],0.00203
D139F,scaled log2 fold change,[1],0.257
same,scaled log2 fold change,[2],0.819
D139M,scaled log2 fold change,[1],0.045
same,scaled log2 fold change,[2],0.155
D139I,scaled log2 fold change,[1],-0.652
same,scaled log2 fold change,[2],0.722
D139A,scaled log2 fold change,[1],0.113
same,scaled log2 fold change,[2],-0.357
D139Y,scaled log2 fold change,[1],-0.145
same,scaled log2 fold change,[2],0.0051
D139G,scaled log2 fold change,[1],-0.228
same,scaled log2 fold change,[2],-0.268
D139R,scaled log2 fold change,[1],0.938
same,scaled log2 fold change,[2],1.09
D139C,scaled log2 fold change,[1],-0.416
same,scaled log2 fold change,[2],-0.576
D139S,scaled log2 fold change,[1],-0.201
same,scaled log2 fold change,[2],-1.37
D139V,scaled log2 fold change,[1],0.0114
D139K,scaled log2 fold change,[1],0.896
same,scaled log2 fold change,[2],0.86
D139T,scaled log2 fold change,[1],-0.31
same,scaled log2 fold change,[2],-0.694
D139L,scaled log2 fold change,[1],0.0653
same,scaled log2 fold change,[2],-0.608
D139P,scaled log2 fold change,[1],-0.0434
same,scaled log2 fold change,[2],-0.395
L138N,scaled log2 fold change,[1],0.767
same,scaled log2 fold change,[2],0.557
L138Y,scaled log2 fold change,[1],0.578
same,scaled log2 fold change,[2],-0.246
L138V,scaled log2 fold change,[1],-0.213
same,scaled log2 fold change,[2],-0.414
L138F,scaled log2 fold change,[1],0.0535
same,scaled log2 fold change,[2],-0.0648
L138G,scaled log2 fold change,[1],0.706
same,scaled log2 fold change,[2],0.389
L138W,scaled log2 fold change,[1],0.885
same,scaled log2 fold change,[2],0.749
L138H,scaled log2 fold change,[1],0.199
same,scaled log2 fold change,[2],0.223
L138S,scaled log2 fold change,[1],0.467
same,scaled log2 fold change,[2],0.0871
L138M,scaled log2 fold change,[1],0.188
same,scaled log2 fold change,[2],0.00846
L138A,scaled log2 fold change,[1],0.519
same,scaled log2 fold change,[2],-0.22
L138T,scaled log2 fold change,[1],-0.0362
same,scaled log2 fold change,[2],0.287
L138E,scaled log2 fold change,[1],0.986
same,scaled log2 fold change,[2],0.639
L138P,scaled log2 fold change,[1],1.15
same,scaled log2 fold change,[2],0.887
L138I,scaled log2 fold change,[1],0.0896
same,scaled log2 fold change,[2],0.0458
L138Q,scaled log2 fold change,[1],-0.00504
same,scaled log2 fold change,[2],0.34
L138R,scaled log2 fold change,[1],-0.0868
same,scaled log2 fold change,[2],-0.131
L138C,scaled log2 fold change,[1],-0.108
same,scaled log2 fold change,[2],0.251
L138D,scaled log2 fold change,[1],1.11
same,scaled log2 fold change,[2],1.04
L138K,scaled log2 fold change,[1],0.41
same,scaled log2 fold change,[2],-0.306
L140V,scaled log2 fold change,[1],-0.00688
same,scaled log2 fold change,[2],0.753
L140Q,scaled log2 fold change,[1],0.178
same,scaled log2 fold change,[2],-1.41
L140M,scaled log2 fold change,[1],0.393
same,scaled log2 fold change,[2],0.793
L140E,scaled log2 fold change,[1],0.271
L140N,scaled log2 fold change,[1],0.179
L140T,scaled log2 fold change,[1],-0.682
same,scaled log2 fold change,[2],-0.194
L140D,scaled log2 fold change,[1],-0.319
same,scaled log2 fold change,[2],-0.308
L140P,scaled log2 fold change,[1],0.264
same,scaled log2 fold change,[2],0.879
L140G,scaled log2 fold change,[1],-0.344
same,scaled log2 fold change,[2],0.395
L140Y,scaled log2 fold change,[1],-0.351
same,scaled log2 fold change,[2],-0.373
L140C,scaled log2 fold change,[1],-0.0723
same,scaled log2 fold change,[2],-0.467
L140F,scaled log2 fold change,[1],-0.344
same,scaled log2 fold change,[2],0.78
L140I,scaled log2 fold change,[1],-0.0613
same,scaled log2 fold change,[2],0.225
L140W,scaled log2 fold change,[1],-0.629
same,scaled log2 fold change,[2],0.639
L140H,scaled log2 fold change,[1],-1.29
same,scaled log2 fold change,[2],0.795
L140S,scaled log2 fold change,[1],-0.172
L140K,scaled log2 fold change,[1],-0.153
same,scaled log2 fold change,[2],-0.169
L140R,scaled log2 fold change,[1],-0.341
same,scaled log2 fold change,[2],-0.397
L140A,scaled log2 fold change,[1],-0.069
same,scaled log2 fold change,[2],-1.25
Y142L,scaled log2 fold change,[1],-0.24
same,scaled log2 fold change,[2],-0.251
Y142I,scaled log2 fold change,[1],-0.441
Y142T,scaled log2 fold change,[1],-0.197
same,scaled log2 fold change,[2],0.583
Y142S,scaled log2 fold change,[1],-0.293
same,scaled log2 fold change,[2],-1.45
Y142D,scaled log2 fold change,[1],-0.228
same,scaled log2 fold change,[2],1.12
Y142W,scaled log2 fold change,[1],-0.245
same,scaled log2 fold change,[2],0.733
Y142Q,scaled log2 fold change,[1],-0.102
same,scaled log2 fold change,[2],-0.021
Y142P,scaled log2 fold change,[1],-1.37
Y142G,scaled log2 fold change,[1],-0.302
same,scaled log2 fold change,[2],-0.393
Y142N,scaled log2 fold change,[1],-0.329
Y142H,scaled log2 fold change,[1],-0.0863
same,scaled log2 fold change,[2],0.947
Y142R,scaled log2 fold change,[1],0.172
same,scaled log2 fold change,[2],-1.11
Y142C,scaled log2 fold change,[1],0.285
same,scaled log2 fold change,[2],-0.427
Y142V,scaled log2 fold change,[1],-0.226
same,scaled log2 fold change,[2],-0.606
Y142E,scaled log2 fold change,[1],-0.1
same,scaled log2 fold change,[2],-0.695
Y142M,scaled log2 fold change,[1],-0.877
same,scaled log2 fold change,[2],-0.0122
Y142K,scaled log2 fold change,[1],0.0326
Y142A,scaled log2 fold change,[1],-0.39
Y142F,scaled log2 fold change,[1],0.0438
same,scaled log2 fold change,[2],0.876
M137C,scaled log2 fold change,[1],-0.596
same,scaled log2 fold change,[2],-0.635
M137N,scaled log2 fold change,[1],0.119
M137K,scaled log2 fold change,[1],-0.121
same,scaled log2 fold change,[2],1.33
M137Y,scaled log2 fold change,[1],-0.108
same,scaled log2 fold change,[2],1.02
M137H,scaled log2 fold change,[1],0.073
same,scaled log2 fold change,[2],-0.384
M137S,scaled log2 fold change,[1],-0.337
same,scaled log2 fold change,[2],-0.153
M137G,scaled log2 fold change,[1],-0.0982
same,scaled log2 fold change,[2],-0.171
M137F,scaled log2 fold change,[1],-0.075
same,scaled log2 fold change,[2],-0.7
M137A,scaled log2 fold change,[1],-0.189
same,scaled log2 fold change,[2],0.285
M137L,scaled log2 fold change,[1],0.182
same,scaled log2 fold change,[2],1.39
M137P,scaled log2 fold change,[1],-0.0177
same,scaled log2 fold change,[2],-0.842
M137Q,scaled log2 fold change,[1],0.0471
same,scaled log2 fold change,[2],-0.244
M137R,scaled log2 fold change,[1],-0.477
same,scaled log2 fold change,[2],-0.0264
M137E,scaled log2 fold change,[1],-0.366
same,scaled log2 fold change,[2],0.879
M137W,scaled log2 fold change,[1],-0.244
same,scaled log2 fold change,[2],1.1
M137T,scaled log2 fold change,[1],0.14
same,scaled log2 fold change,[2],-0.403
M137V,scaled log2 fold change,[1],-0.0968
same,scaled log2 fold change,[2],-0.154
M137I,scaled log2 fold change,[1],0.0941
same,scaled log2 fold change,[2],0.499
M137D,scaled log2 fold change,[1],0.813
same,scaled log2 fold change,[2],0.152
A141P,scaled log2 fold change,[1],0.46
same,scaled log2 fold change,[2],-0.803
A141I,scaled log2 fold change,[1],-0.168
same,scaled log2 fold change,[2],0.617
A141F,scaled log2 fold change,[1],-0.22
same,scaled log2 fold change,[2],1.03
A141H,scaled log2 fold change,[1],0.134
same,scaled log2 fold change,[2],-0.527
A141N,scaled log2 fold change,[1],-0.0904
same,scaled log2 fold change,[2],0.596
A141R,scaled log2 fold change,[1],0.0996
same,scaled log2 fold change,[2],0.0982
A141Y,scaled log2 fold change,[1],-0.374
same,scaled log2 fold change,[2],-0.341
A141V,scaled log2 fold change,[1],0.00876
same,scaled log2 fold change,[2],0.0536
A141W,scaled log2 fold change,[1],-0.0378
same,scaled log2 fold change,[2],-0.209
A141E,scaled log2 fold change,[1],0.304
same,scaled log2 fold change,[2],-0.297
A141D,scaled log2 fold change,[1],0.178
same,scaled log2 fold change,[2],-0.445
A141Q,scaled log2 fold change,[1],0.09
same,scaled log2 fold change,[2],0.9
A141M,scaled log2 fold change,[1],-0.0992
same,scaled log2 fold change,[2],0.123
A141C,scaled log2 fold change,[1],0.249
same,scaled log2 fold change,[2],-1.33
A141L,scaled log2 fold change,[1],-0.402
A141T,scaled log2 fold change,[1],0.135
same,scaled log2 fold change,[2],0.788
A141S,scaled log2 fold change,[1],-0.0824
same,scaled log2 fold change,[2],0.987
A141G,scaled log2 fold change,[1],-0.119
same,scaled log2 fold change,[2],0.016
A141K,scaled log2 fold change,[1],0.122
same,scaled log2 fold change,[2],-0.0127
D136S,scaled log2 fold change,[1],0.133
same,scaled log2 fold change,[2],0.338
D136Y,scaled log2 fold change,[1],0.0478
same,scaled log2 fold change,[2],-0.0361
D136W,scaled log2 fold change,[1],0.188
same,scaled log2 fold change,[2],0.105
D136R,scaled log2 fold change,[1],0.898
same,scaled log2 fold change,[2],1.08
D136V,scaled log2 fold change,[1],0.459
same,scaled log2 fold change,[2],0.696
D136T,scaled log2 fold change,[1],0.611
same,scaled log2 fold change,[2],0.431
